Variants at the floor of the assay were thinned out.
B1: TPR 5TU (parent)
chain: GGAUCUUCUCGAUCUAACAAAAAAGACAAAUCUGCCACAAAGCUUGAGAGCAUCUUCGGAUGCAGAGGCGGCAGCCUUCGGUGGCGCGAUAGCGCCAACGUUCUCAACUAUGACACGCAAAACGCGUGCUCCGUUGAAUGGAGUUUAUCAUG

Variants of: B1
Assay: polymerase ribozyme fitness, log enrichment relative to wild type (log ratio); higher = more active; in vitro selection for triplet polymerase activity
Outline: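 Both subunits of a heterodimeric triplet polymerase ribozyme were given their own mutant library, built by PCR and transcribed. Each library was annealed with a biotinylated primer, the partner subunit and triplets, incubated frozen at −7 °C, and its extended constructs gel-excised, captured on streptavidin beads and amplified by RT-PCR, all in one round done in triplicate. Fitness is the logarithm of genotype enrichment relative to wild-type enrichment, with replicates averaged by inverse-variance weighting. That logarithm is base 2, and Illumina-sequenced genotypes needed ≥10 input reads and ≥1 read per output.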

Variant | polymerase ribozyme fitness (log ratio)
GGAUCUUCUCGAUCUAACAAAAAAGACAAAUCUGCCACAAGGCUUGAGAGCAUCUUCGGAUGCAGAGGCGGCACUAUUCGGUGGCGCGAUCUCGCCAACGUUCUCAACUAUGACACGCAAAACGCGUGCUCCGAUGAAUGCAGUUUAUCAUG | ≤ -4.2
GGAUCUUCUCGAUCUAACAAAAAAGACAAAUCUGCCACAAUGCUUGUGAGCAUCUUCGGAUGCAGAGGCGGCAGCCUUCGGUGGCGCGAUAGCGCCAAGGUUCUCAUCUAUGACACGCAAAACGCGUGCUCCGUUGAAUGGAGUUUAUCAUG | ≤ -4.2
GGAUCUUCUCGAUCUAACAAAAAAGACAAAUCUGCCACAAUGCUUGAGAGCAUCUUCGGAUGCAGAGGCGGGAGCUUUCGGUGGCGCGAUAGCGCCAACGUUCUCAACUAUGACACGCGAAACGCGUGCUCCGGUGAAUGGUGUUUAUCAUG | ≤ -4.2
GGAUCUUCUCGAUCUAACAAAAAAGACAAAUCUGCCACAAGGCUUGAGAGCAUCUGCUGAUGCAGAGGCGGCAGCCUUCGAUGACGCGAUAGCGCCAACGUUCUCAACUAUGACAUGCAAAACGCGUGCUCCGUUGAAUGGAGUUUAUUAUG | -1.86
GGAUCUUCUCGAUCUAACAAAAAAGACAAAUCUGCCACAAUGCUUGAGAGCAUUUUCGGAUGCAGAGGCGGCAGCCUUCGGUGGCGCGAUAGCGCCAACGUUCUCAACUAUGACACGCAAAACGCGUGCUCCGUUGAAUGGAGUUUAUCAUG | -0.75
GGAUCUUCUCGAUCUAACAAAAAAGACAAAUCUGCCACAAUGCUUGAGAGCAUAUUCGGAUGCAGAGGCGGCAGCCUUCGGUGGCGCGAUAGAGCCAACGUUCUCAACUAUGACACGCAAAACGCUUGCUCCGUUGAAUGGAGUUUAUCAUG | ≤ -4.2
GGAUCUUCUCGAUCUAACAAAAAAGACAAAUCUGCCACAAUGCUUGAGAGCAUCUUGGGAUGCAGAGGCGGCAGCCUUCGGUGGCGCGAUAGCGCCAACGUUCUCAACUAUGACACGCAGAACGCGUGCUCCGUUGAAUGGAGUUUAUCAUG | -2.19
GGAUCUUCUCGAUCUAACAAAAAAGACAAAUCUGCCACAAGGCUUGAGAGCAUCUUCGGAUGCAGAGGCGGCAGCCUUCGGUGUCGCGAUAGCGCCAACGUUCUCAACUAUGACAUGCAAAACGCGUGCUCCGUUUAAUGGAGUUUAUCAUG | -3.6
GGAUCUUCUCGAUCUAACAAAAAAGACAAAUCUGCCACAAUGCUUGAGAGCAUCUUCGGUUGCAGAGGCGGCAGCCUUCGGUGACGCGAUAGCGGCAACGUUCUUAACUUUGACACGCAAAACGCGUGCUCCGUUGAAUGGAGUUUAUCAUG | ≤ -4.2
GGAUCUUCUCGAUCUAACAAAAAAGACAAAUCUGCCACAAUGCUUGAGAGCUUCCUCGGAUGCAGUGGCGGCAGCCUUCGGUGGCGCGAUAGCGCCAACGUUCUCAACUAUGACACGCAAAACGCGUGCUCCGUUGAAUGGAGUUUAUCAUG | ≤ -4.2
GGAUCUUCUCGAUCUAACAAAAAAGACAAAUCUGCCACAAUGCUUGAGGGCAUCUUCCGAUGCAGAGGCGGCAGCCUUCGGUGGCGCGAUAACGACAACGUUCUCAACUAUGACACGCAAAAAGCGUGCUCCGUUGAAUGGAGUUUAUCAUG | ≤ -4.2
GGAUCUUCUCGAUCUAACAAAAAAGACAAAUCUGCCACAAUGCUUGAGAGCAUCUUCGGAUGCAGAGGCGGCAGCCUUCGGUGGCGCGAUAGCGUCAAAGUUCUCAACUAUGACACGCAAAACGCGUGCUCCGUUGAAUGGAGUUGAUCAUG | -2.29
GGAUCUUCUCGAUCUAACAAAAAAGACAAAUCUGCCACAAUGCUUGAGAGCAUCUUGGGAUGCAGAGGCGGCAGCCUUCGGUGGCGCGAUAGCGCCAACGUUCUCAACUAUGACACGCAAAAAGCGUGCUCCGUUGAAUGGAGUUUAUCAUG | -2.99
GGAUCUUCUCGAUCUAACAAAAAAGACAAAUCUGCCACAAUGCUUGAGUGCAUCUUCGGAUGCAGAGGCGGCAGCCUUCGGUGGCGCGAUAGCGCCAACGUUCUCAACUAUGACACGCAAAACGCGUGCUCCGUUGAAUGGAGUUUAUCAUG | -2.28
GGAUCUUCUCGAUCUAACAAAAAAGACAAAUCUGCCACAAUGCUUGAGAGCAUAUUCGGAUGCAGAGGCGGCAGCCUUCGGUGGCGCGAUAACGCCAACGUUCUCAACUAUGACACGCAAAACGCGUGCUCCGUUGAAUGGAGUUUAUCAUG | ≤ -4.2
GGAUCUUCUCGAUCUAACAAAAAAGACAAAUCUGCCACAAUGCUUGAGAGCUUCUUUGGACGCAGAGGCGGCAGCCUUCGGUGGCGCGAUAGCGCCAACGUUCUCAACUAUGACACGCAAAACGCGUGCUCCGUUGAAUGGAGUUUAUCAUG | ≤ -4.2
GGAUCUUCUCGAUCUAACAAAAAAGACAAAUCUGCCACAAUGCUUGAGAGCAUCUUCGGAUGCAGAGGCGGCAGCCUUCGGUGGCGCGAUAGCGCCAAAGUUCUCAUCUAUGACACACAAAUCGCGUACUCCGUUGAAUGGAGUUUAUCAUG | ≤ -4.2
GGAUCUUCUCGAUCUAACAAAAAAGACAAAUCUGCCACAAGGCUUGAGAGCAUCAUGGGAUGCAGAGGCGGCAGCCUUCGGUGGCGCGAUAGCGCCAACGUUCUCAACUAUGACACGCAAAACGCGUGCUCCGUUGAAUGGAGUUUAUCAUG | 0.000485
GGAUCUUCUCGAUCUAACAAAAAAGACAAAUCUGCCACAAUGCUUGAGAGCAUCUUCGGAUGCAGAGGCGGCAGCCUUCGGUGGCGCGAUAGCGCCAACGUUCUCAACUAUGACACGCAAAACGCGUGCUGCGUUGAAUGGAGUUUAUCAUG | ≤ -4.2
